Here are results for eleven sequences from the supplement of paper PMC11246515.

± gives the standard deviation of the averaged measurements.

This series in a line: total protein half-life in vivo (active degradation + dilution); higher = more stable protein.
The mark [1] stands for this setting: E. coli NCM3722 delta-clpP delta-lon delta-hslV, growth: N-lim chemostat, doubling time 6 h.
The mark [2] stands for this setting: E. coli NCM3722 delta-clpP, growth: N-lim chemostat, doubling time 6 h.
[3] abbreviates: E. coli NCM3722 delta-hslV, growth: N-lim chemostat, doubling time 6 h.
Where [4] appears, read: E. coli NCM3722 delta-lon, growth: N-lim chemostat, doubling time 6 h.
Setting [5] is: E. coli NCM3722 delta-smpB, growth: N-lim chemostat, doubling time 6 h.
Where [6] appears, read: wild type E. coli NCM3722, growth: C-lim chemostat, doubling time 3 h.
Where [7] appears, read: wild type E. coli NCM3722, growth: C-lim chemostat, doubling time 6 h.
[8] abbreviates: wild type E. coli NCM3722, growth: C-lim chemostat, doubling time 12 h.
Setting [9] is: wild type E. coli NCM3722, growth: N-lim chemostat, doubling time 6 h.
The mark [10] stands for this setting: wild type E. coli NCM3722, growth: N-lim chemostat, doubling time 12 h.
[11] abbreviates: wild type E. coli NCM3722, growth: P-lim chemostat, doubling time 6 h.
The mark [12] stands for this setting: wild type E. coli NCM3722, growth: P-lim chemostat, doubling time 12 h.

“MSNTYQKRKASKEYGLYNQCKKLNDDELFRLLDDHNSLKRISSARVLQLRGGQDAVRLAIEFCSDKNYIRRDIGAFILGQIKICKKCEDNVFNILNNMALNDKSACVRATAIESTAQRCKKNPIYSPKIVEQSQITAFDKSTNVRRATAFAISVINDKATIPLLINLLKDPNGDVRNWAAFAININKYDNSDIRDCFVEMLQDKNEEVRIEAIIGLSYRKDKRVLSVLCDELKKNTVYDDIIEAAGELGDKTLLPVLDTMLYKFDDNEIITSAIDKLKRS [P0ADK6]”: the “total protein half-life in vivo” value came out at 5.51 ± 0.25 h under setting [1]; 4.904 ± 0.018 h under setting [2]; 2.92 ± 1.5 h under setting [3]; 2.68 ± 0.43 h under setting [4]; 1.77 ± 0.26 h under setting [5]; 2.016 ± 0.02 h under setting [6]. The “total protein half-life in vivo” value under setting [7] stood at 3.9 ± 0.61 h; the “total protein half-life in vivo” value under setting [8] came out at 5.23 ± 0.093 h; the “total protein half-life in vivo” value under setting [9] is 2.17 ± 0.22 h; the “total protein half-life in vivo” value under setting [10] turned out to be 2.62 ± 0.074 h; the “total protein half-life in vivo” value under setting [11] was found to be 2.65 ± 0.32 h; the “total protein half-life in vivo” value under setting [12] turned out to be 4.89 ± 1 h.

For the sequence “MLNAWHLPVPPFVKQSKDQLLITLWLTGEDPPQRIMLRTEHDNEEMSVPMHKQRSQPQPGVTAWRAAIDLSSGQPRRRYSFKLLWHDRQRWFTPQGFSRMPPARLEQFAVDVPDIGPQWAADQIFYQIFPDRFARSLPREAEQDHVYYHHAAGQEIILRDWDEPVTAQAGGSTFYGGDLDGISEKLPYLKKLGVTALYLNPVFKAPSVHKYDTEDYRHVDPQFGGDGALLRLRHNTQQLGMRLVLDGVFNHSGDSHAWFDRHNRGTGGACHNPESPWRDWYSFSDDGTALDWLGYASLPKLDYQSESLVNEIYRGEDSIVRHWLKAPWNMDGWRLDVVHMLGEAGGARNNMQHVAGITEAAKETQPEAYIVGEHFGDARQWLQADVEDAAMNYRGFTFPLWGFLANTDISYDPQQIDAQTCMAWMDNYRAGLSHQQQLRMFNQLDSHDTARFKTLLGRDIARLPLAVVWLFTWPGVPCIYYGDEVGLDGKNDPFCRKPFPWQVEKQDTALFALYQRMIALRKKSQALRHGGCQVLYAEDNVVVFVRVLNQQRVLVAINRGEACEVVLPASPFLNAVQWQCKEGHGQLTDGILALPAISATVWMN”, the “total protein half-life in vivo” value was 6.31 ± 0.59 h under setting [1]; 6.88 ± 1.2 h under setting [2]; 2.49 ± 0.11 h under setting [3]; 2.59 ± 0.38 h under setting [4]; 2.28 ± 0.031 h under setting [5]; 2.48 ± 0.074 h under setting [6]. In addition, the “total protein half-life in vivo” value runs as follows: under setting [7], 3.86 ± 0.075 h; under setting [8], 6.87 ± 1.4 h; under setting [9], 2.18 h; under setting [10], 3.45 ± 0.98 h; under setting [11], 5 ± 0.27 h; under setting [12], 7.49 ± 0.34 h.

“MENQPKLNSSKEVIAFLAERFPHCFSAEGEARPLKIGIFQDLVDRVAGEMNLSKTQLRSALRLYTSSWRYLYGVKPGATRVDLDGNPCGELDEQHVEHARKQLEEAKARVQAQRAEQQAKKREAAATAGEKEDAPRRERKPRPTTPRRKEGAERKPRAQKPVEKAPKTVKAPREEQHTPVSDISALTVGQALKVKAGQNAMDATVLEITKDGVRVQLNSGMSLIVRAEHLVF”: the “total protein half-life in vivo” value was 6.28 ± 0.52 h under setting [1]; 4.08 ± 0.88 h under setting [2]; 3.47 ± 0.071 h under setting [3]; 3.13 ± 0.045 h under setting [5]; 2.73 ± 0.21 h under setting [6]; 4.51 ± 0.22 h under setting [7]. Also, the “total protein half-life in vivo” value is 6.83 ± 0.53 h under setting [8]; 3.07 ± 0.052 h under setting [9]; 4.76 ± 0.052 h under setting [10]; 2.974 ± 0.024 h under setting [11]; 4.71 ± 0.23 h under setting [12].

For the sequence “MHTSELLKHIYDINLSYLLLAQRLIVQDKASAMFRLGINEEMATTLAALTLPQMVKLAETNQLVCHFRFDSHQTITQLTQDSRVDDLQQIHTGIMLSTRLLNDVNQPEEALRKKRA [P0A8S9]”, the “total protein half-life in vivo” value is, setting by setting: under setting [1], 6.51 ± 0.47 h; under setting [6], 0.799 h.

For the sequence “MVELKEPLATLWRGKDAFAEVKKLNGEVFRELETRRTLRFELSGKSYFLKWHKGTTLKEIIKNLLSLRMPVLGADREWHAIHRLSDVGVDTMKGIGFGEKGLNPLTRASFIITEDLTPTISLEDYCADWAVNPPDIRVKRMLIARVATMVRKMHTAGINHRDCYICHFLLHLPFTGREDELKISVIDLHRAQIRAKVPRRWRDKDLIGLYFSSMNIGLTQRDIWRFMKVYFGMPLRKILSLEQNLLNMASVKAERIKERTQRKGL”, the “total protein half-life in vivo” value was determined as 6.12 ± 0.57 h under setting [1]; 6.03 ± 0.16 h under setting [2]; 6.41 ± 0.56 h under setting [3]; 5.58 ± 0.54 h under setting [4]; 5.92 ± 0.2 h under setting [5]; 3.02 ± 0.17 h under setting [6]. Also, the “total protein half-life in vivo” value by setting is: under setting [7], 6.68 ± 0.36 h; under setting [8], 11.5 ± 0.34 h; under setting [9], 5.76 ± 0.48 h; under setting [10], 11.4 ± 1.2 h; under setting [11], 5.94 ± 0.41 h; under setting [12], 12 ± 0.44 h.

With “MKKLALILFMGTLVSFYADAGRKPCSGSKGGISHCTAGGKFVCNDGSISASKKTCTN [P0ACW4]”, the “total protein half-life in vivo” value came out at 0.862 h under setting [6], 4.49 h under setting [7] and 4.67 h under setting [8].

As for “MNNFNLHTPTRILFGKGAIAGLREQIPHDARVLITYGGGSVKKTGVLDQVLDALKGMDVLEFGGIEPNPAYETLMNAVKLVREQKVTFLLAVGGGSVLDGTKFIAAAANYPENIDPWHILQTGGKEIKSAIPMGCVLTLPATGSESNAGAVISRKTTGDKQAFHSAHVQPVFAVLDPVYTYTLPPRQVANGVVDAFVHTVEQYVTKPVDAKIQDRFAEGILLTLIEDGPKALKEPENYDVRANVMWAATQALNGLIGAGVPQDWATHMLGHELTAMHGLDHAQTLAIVLPALWNEKRDTKRAKLLQYAERVWNITEGSDDERIDAAIAATRNFFEQLGVPTHLSDYGLDGSSIPALLKKLEEHGMTQLGENHDITLDVSRRIYEAAR”, the “total protein half-life in vivo” value is 5.02 ± 0.23 h under setting [2]; 4.48 ± 0.25 h under setting [3]; 4.949 ± 0.041 h under setting [4]; 4.48 ± 0.23 h under setting [5]; 3.27 ± 0.089 h under setting [6]; 6.48 ± 1 h under setting [7]. The “total protein half-life in vivo” value runs as follows: under setting [8], 11.6 ± 0.92 h; under setting [9], 5.22 ± 0.38 h; under setting [10], 7.834 ± 0.065 h; under setting [11], 5.35 ± 0.47 h; under setting [12], 10.2 ± 0.89 h.

For “MAIALVTGGSRGIGRATALLLAQEGYTVAVNYQQNLHAAQEVMNLITQAGGKAFVLQADISDENQVVAMFTAIDQHDEPLAALVNNAGILFTQCTVENLTAERINRVLSTNVTGYFLCCREAVKRMALKNGGSGGAIVNVSSVASRLGSPGEYVDYAASKGAIDTLTTGLSLEVAAQGIRVNCVRPGFIYTEMHASGGEPGRVDRVKSNIPMQRGGQAEEVAQAIVWLLSDKASYVTGSFIDLAGGK”, the “total protein half-life in vivo” value is 5.48 ± 0.058 h under setting [2]; 5.67 h under setting [3]; 5.69 ± 0.45 h under setting [4]; 4.82 h under setting [5]; 3.03 ± 0.14 h under setting [6]; 5.93 h under setting [7]. For the same sequence, the “total protein half-life in vivo” value under setting [9] is 4.66 ± 0.41 h, the “total protein half-life in vivo” value under setting [10] was 8.32 ± 0.23 h, the “total protein half-life in vivo” value under setting [11] was 6.41 ± 0.74 h and the “total protein half-life in vivo” value under setting [12] is 11.2 ± 1.9 h.

Take “MNPIVINRLQRKLGYTFNHQELLQQALTHRSASSKHNERLEFLGDSILSYVIANALYHRFPRVDEGDMSRMRATLVRGNTLAELAREFELGECLRLGPGELKSGGFRRESILADTVEALIGGVFLDSDIQTVEKLILNWYQTRLDEISPGDKQKDPKTRLQEYLQGRHLPLPTYLVVQVRGEAHDQEFTIHCQVSGLSEPVVGTGSSRRKAEQAAAEQALKKLELE [P0A7Y0]”: the “total protein half-life in vivo” value by setting is: under setting [1], 5.33 ± 0.47 h; under setting [2], 4.64 ± 0.1 h; under setting [3], 5.21 ± 0.87 h; under setting [4], 5.08 ± 0.24 h; under setting [5], 4.72 ± 0.15 h; under setting [6], 2.85 ± 0.21 h. Moreover, the “total protein half-life in vivo” value under setting [7] stood at 5.54 ± 0.24 h; the “total protein half-life in vivo” value under setting [8] was determined as 8.37 ± 0.68 h; the “total protein half-life in vivo” value under setting [9] amounted to 4.85 ± 0.54 h; the “total protein half-life in vivo” value under setting [10] stood at 7.78 ± 0.17 h; the “total protein half-life in vivo” value under setting [11] came to 5.51 ± 0.21 h; the “total protein half-life in vivo” value under setting [12] turned out to be 11.4 ± 0.34 h.

Take “MRRTFTAEEKASVFELWKNGTGFSEIANILGSKPGTIFTMLRDTGGIKPHERKRAVAHLTLSEREEIRAGLSAKMSIRAIATALNRSPSTISREVQRNRGRRYYKAVDANNRANRMAKRPKPCLLDQNLPLRKLVLEKLEMKWSPEQISGWLRRTKPRQKTLRISPETIYKTLYFRSREALHHLNIQHLRRSHSLRHGRRHTRKGERGTINIVNGTPIHERSRNIDNRRSLGHWEGDLVSGTKNSHIATLVDRKSRYTIILRLRGKDSVSVNQALTDKFLSLPSELRKSLTWDRGMELARHLEFTVSTGVKVYFCDPQSPWQRGTNENTNGLIRQYFPKKTCLAQYTQHELDLVAAQLNNRPRKTLKFKTPKEIIERGVALTD [P0CF90]”: the “total protein half-life in vivo” value under setting [1] came out at 5.45 ± 0.8 h.

Regarding “MIWKRHLTLDELNATSDNTMVAHLGIVYTRLGDDVLEAEMPVDTRTHQPFGLLHGGASAALAETLGSMAGFMMTRDGQCVVGTELNATHHRPVSEGKVRGVCQPLHLGRQNQSWEIVVFDEQGRRCCTCRLGTAVLG [P0A8Y8]”, under setting [1], the “total protein half-life in vivo” value amounted to 6.69 h.
